Measured values as given in patent publication EP2649983A1 (Lipotec, S.A., dated 2013).

What follows are binders tested against SNARE complex in cells of a human neuroblastoma cell line (human, UniProt P60880 1-206) (assay: cell-based or functional assay).
Chain of SNARE complex in cells of a human neuroblastoma cell line (P60880 whole entry, one chain of several): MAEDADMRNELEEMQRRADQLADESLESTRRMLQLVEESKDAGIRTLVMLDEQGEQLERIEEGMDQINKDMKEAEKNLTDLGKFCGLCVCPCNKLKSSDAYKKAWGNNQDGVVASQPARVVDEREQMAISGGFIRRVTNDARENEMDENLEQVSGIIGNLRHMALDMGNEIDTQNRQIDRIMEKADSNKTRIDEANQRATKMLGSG

| Binder | % RELEASED NO… (Average), dose 1 µM | % RELEASED NO… (Average), dose 10 µM | % RELEASED NO… (Average), dose 100 µM | % RELEASED NO… (Average), dose 500 µM | % RELEASED NO… (Average), dose 1000 µM |
| --- | --- | --- | --- | --- | --- |
| Ac-EDLKRWM-NH2 [Ac-SEQ ID NO:14-NH2] | – | 85% | 86% | – | 45.8% |
| Ac-EHLKQWM-NH2 [Ac-SEQ ID NO:1-NH2] | 96.1% | 93.1% | 79.6% | 49.1% | 42.5% |

Results, then the binder that gave them:

| % RELEASED NO… (Average), dose 1 µM | % RELEASED NO… (Average), dose 10 µM | % RELEASED NO… (Average), dose 100 µM | % RELEASED NO… (Average), dose 500 µM | % RELEASED NO… (Average), dose 1000 µM | Binder |
| --- | --- | --- | --- | --- | --- |
| 99.6% | 94.5% | 74.8% | 48.1% | 41% | Ac-DHFLDWM-NH2 [Ac-SEQ ID NO:25-NH2] |
| 90.6% | 97.1% | 89% | 78.1% | 67.9% | Ac-DHFQQRM-NH2 [Ac-SEQ ID NO:24-NH2] |
